Consider 1 molecule from paper PMC5765006 (2018).

The target in this test is soluble extracellular domain of human TM (Homo sapiens (Human), UniProt P07204). In words: competition pull-down (native Ang1 inhibits thrombin/TM co-precipitation on Ni-NTA, western blot); direct pull-down only with BowAng1; indirect readout: displacement of thrombin (5 nM) from soluble TM. In general terms: In western blotting, separated proteins are transferred to a membrane and probed.
Chain of soluble extracellular domain of human TM (P07204 19-515): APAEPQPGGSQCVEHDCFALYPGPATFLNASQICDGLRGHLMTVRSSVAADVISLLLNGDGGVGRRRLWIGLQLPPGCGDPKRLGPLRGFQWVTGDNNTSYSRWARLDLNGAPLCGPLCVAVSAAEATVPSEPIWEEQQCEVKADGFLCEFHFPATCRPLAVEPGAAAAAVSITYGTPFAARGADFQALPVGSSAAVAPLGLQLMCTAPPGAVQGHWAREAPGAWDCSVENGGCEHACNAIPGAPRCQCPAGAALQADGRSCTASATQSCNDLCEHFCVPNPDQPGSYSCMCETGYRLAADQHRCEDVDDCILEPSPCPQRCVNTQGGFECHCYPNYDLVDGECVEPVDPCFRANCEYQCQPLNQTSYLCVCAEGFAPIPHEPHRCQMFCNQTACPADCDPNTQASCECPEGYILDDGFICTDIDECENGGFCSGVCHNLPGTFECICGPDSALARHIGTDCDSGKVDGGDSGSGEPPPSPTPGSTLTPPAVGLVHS

B1: native human Ang1 (protein)
chain: HIGCSNQRRSPENSGRRYNRIQHGQCAYTFILPEHDGNCRESTTDQYNTNALQRDAPHVEPDFSSQKLQHLEHVMENYTQWLQKLENYIVENMKSEMAQIQQNAVQNHTATMLEIGTSLLSQTAEQTRKLTDVETQVLNQTSRLEIQLLENSLSTYKLEKQLLQQTNEILKIHEKNSLLEHKILEMEGKHKEELDTLKEEKENLQGLVTRQTYIIQELEKQLNRATTNNSVLQKQQLELMDTVHNLVNLCTKEGVLLKGGKREEEKPFRDCADVYQAGFNKSGIYTIYINNMPEPKKVFCNMDVNGGGWTVIQHREDGSLDFQRGWKEYKMGFGNPSGEYWLGNEFIFAITSQRQYMLRIELMDWEGNRAYSQYDRFHIGNEKQNYRLYLKGHTGTAGKQSSLILHGADFSTKDADNDNCMCKCALMLTGGWWFDACGPSNLNGMFYTAGQNHGKLNGIKWHYFKGPSYSLRSTTMMIRPLDF
Consider B1, for which the binding result is given as “binds”.
